2 sequences from US5786462 can be followed below.

Data set [1] addresses T1, HIV-1 reverse transcriptase (Human immunodeficiency virus 1) (UniProt P03366+P03366). The experiment in a line: inhibition. The following applies: Ki' printed as ≤ 3 uM; almost no inhibition at 81 nM.
For data set [2], the target named is T1, HIV-1 reverse transcriptase (Human immunodeficiency virus 1). The experiment in a line: filter. To be noted: apparent Kd, HRT buffer 37 C.
Data set [3] concerns AMV reverse transcriptase (Avian myeloblastosis virus). The following applies: intramolecular 3' extension to end of template.

pKd, pKi: −log10 of the molar value.

“ATCCGCCTGATTAGCGATACTNNNNNNNNNNNNNNNNNNNNNNNNNNNNNNNNNNNACTTGAGCAAAATCACCTGCAGGGG [RO degenerate ssDNA library]” had a pKi in data set [1] below 5.52. Besides, the pKd in data set [2] was 5.85. The sequence “ATCCGCCTGATTAGCGATACTTACGTGAGCGTGCTGTCCCCTAAAGGTGATACGTCACTTGAGCAAAATCACCTGCAGGGG [RT26]” showed an activity in data set [3] of 50 % initiation.

Broadly, the pKi is the negative decadic logarithm of the Ki, by convention in mol/L. The low end stands for a high Ki, the high end for a low Ki. The term pKd denotes −log10 of the Kd, conventionally taken in molar units.
